Source: patent publication US20220403048A1, “BINDING MOLECULES TO ARGINASE II [ARG2]” (Cancer Research Technology Limited, priority 2019, published 2022)

Molecular target: recombinant human trimeric ARG2 enzyme (construct not given) (human) (UniProt P78540)
Experiment: cell-based or functional assay

Sequence of recombinant human trimeric ARG2 enzyme (construct not given) (human) (P78540 23-354, form in doubt): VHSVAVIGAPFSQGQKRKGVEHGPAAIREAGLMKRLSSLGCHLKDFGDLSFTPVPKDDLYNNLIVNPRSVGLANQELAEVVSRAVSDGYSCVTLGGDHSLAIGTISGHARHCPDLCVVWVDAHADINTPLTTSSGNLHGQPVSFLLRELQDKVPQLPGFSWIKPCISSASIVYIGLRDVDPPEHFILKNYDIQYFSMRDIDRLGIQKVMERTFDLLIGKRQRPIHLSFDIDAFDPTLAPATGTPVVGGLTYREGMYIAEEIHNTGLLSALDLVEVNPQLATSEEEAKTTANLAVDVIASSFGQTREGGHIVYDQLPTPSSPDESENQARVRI

NIP228 human IgG1 (antibody) showed an EC50, In Presence of rhARG2 (T cell proliferation) of over 2000 nM and a Maximum % Proliferation, In Presence of rhARG2 of 7%.
